According to PMC3248755:

Substrate: CSC(=N)NCCC[C@H](N)C(=O)O
Assay: steady-state kinetics
Type: biochemical, Homo sapiens

B1: human dimethylarginine dimethylaminohydrolase-1 (DDAH-1) (Homo sapiens) (protein)
chain: MAGLGHPAAFGRATHAVVRALPESLGQHALRSAKGEEVDVARAERQHQLYVGVLGSKLGLQVVELPADESLPDCVFVEDVAVVCEETALITRPGAPSRRKEVDMMKEALEKLQLNIVEMKDENATLDGGDVLFTGREFFVGLSKRTNQRGAEILADTFKDYAVSTVPVADGLHLKSFCSMAGPNLIAIGSSESAQKALKIMQQMSDHRYDKLTVPDDIAANCIYLNIPNKGHVLLHRTPEEYPESAKVYEKLKDHMLIPVSMSELEKVDGLLTCCSVLINKKVDS
B1 showed a Km of 0.37 ± 0.03 µM.
